Target: tau (total tau), endogenous mouse protein in brain extracts (mouse) (UniProt P10637)
Experiment: immunoprecipitation with antibody to total tau, immunoblot for Chip; 8 months old against 6 weeks old mice

tau (total tau), endogenous mouse protein in brain extracts (mouse), sequence (P10637 other isoform, or with tags, fused parts or gaps limits assumed): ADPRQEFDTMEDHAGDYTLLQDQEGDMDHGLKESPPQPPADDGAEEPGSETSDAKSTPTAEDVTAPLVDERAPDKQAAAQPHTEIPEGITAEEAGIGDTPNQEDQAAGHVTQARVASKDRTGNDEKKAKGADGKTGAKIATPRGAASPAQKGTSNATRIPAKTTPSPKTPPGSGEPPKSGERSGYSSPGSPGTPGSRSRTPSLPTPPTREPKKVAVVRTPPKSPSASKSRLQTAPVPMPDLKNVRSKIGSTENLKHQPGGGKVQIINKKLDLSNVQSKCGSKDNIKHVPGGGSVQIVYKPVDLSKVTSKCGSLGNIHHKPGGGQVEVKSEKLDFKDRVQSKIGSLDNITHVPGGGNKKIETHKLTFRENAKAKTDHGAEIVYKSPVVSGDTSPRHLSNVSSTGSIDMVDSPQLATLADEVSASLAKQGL

Question: How did the fold amount of Chip co-immunoprecipitated with tau in aged brain extracts turn out when “Chip (C-terminal Hsp70-interacting protein) ubiquitin ligase, endogenous mouse protein in brain extracts (from UniProt Q9WUD1 1-304) (enzyme)” was run?
Answer: 2 fold

Source: patent US20110047631A1, “HEAT SHOCK PROTEIN DEFICIENCIES AS MODEL SYSTEMS FOR BRAIN PATHOLOGY AND CANCER” (Medical College of Georgia Research Institute Inc., priority 2009, published 2011)
